Data on 3 molecules can be found in patent publication US20110262949A1.

Data set [1] deals with T1, wt β2 (E. coli class I ribonucleotide reductase subunit β2), P69924.
T1 chain: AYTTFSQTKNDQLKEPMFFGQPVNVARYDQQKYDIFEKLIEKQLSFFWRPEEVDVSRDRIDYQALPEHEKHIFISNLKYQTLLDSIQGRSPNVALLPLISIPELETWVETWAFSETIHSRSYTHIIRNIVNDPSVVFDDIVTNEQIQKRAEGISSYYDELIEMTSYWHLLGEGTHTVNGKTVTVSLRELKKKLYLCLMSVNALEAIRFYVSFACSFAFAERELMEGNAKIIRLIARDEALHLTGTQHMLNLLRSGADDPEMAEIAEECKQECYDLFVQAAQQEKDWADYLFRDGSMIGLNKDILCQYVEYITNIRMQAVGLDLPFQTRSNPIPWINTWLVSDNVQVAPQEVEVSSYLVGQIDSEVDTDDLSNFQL

In data set [2] the target is wt β2 (E. coli class I ribonucleotide reductase subunit β2) (E. coli) (UniProt P69924). The data set is described as follows: cell-based or functional assay.

B1: Y730NH2Y-α2 (E. coli class I ribonucleotide reductase subunit α2 with 3-aminotyrosine at residue 730) (protein)
chain: MNQNLLVTKRDGSTERINLDKIHRVLDWAAEGLHNVSISQVELRSHIQFYDGIKTSDIHETIIKAAADLISRDAPDYQYLAARLAIFHLRKKAYGQFEPPALYDHVVKMVEMGKYDNHLLEDYTEEEFKQMDTFIDHDRDMTFSYAAVKQLEGKYLVQNRVTGEIYESAQFLYILVAACLFSNYPRETRLQYVKRFYDAVSTFKISLPTPIMSGVRTPTRQFSSCVLIECGDSLDSINATSSAIVKYVSQRAGIGINAGRIRALGSPIRGGEAFHTGCIPFYKHFQTAVKSCSQGGVRGGAATLFYPMWHLEVESLLVLKNNRGVEGNRVRHMDYGVQINKLMYTRLLKGEDITLFSPSDVPGLYDAFFADQEEFERLYTKYEKDDSIRKQRVKAVELFSLMMQERASTGRIYIQNVDHCNTHSPFDPAIAPVRQSNLCLEIALPTKPLNDVNDENGEIALCTLSAFNLGAINNLDELEELAILAVRALDALLDYQDYPIPAAKRGAMGRRTLGIGVINFAYYLAKHGKRYSDGSANNLTHKTFEAIQYYLLKASNELAKEQGACPWFNETTYAKGILPIDTYKKDLDTIANEPLHYDWEALRESIKTHGLRNSTLSALMPSETSSQISNATNGIEPPRGYVSIKASKDGILRQVVPDYEHLHDAYELLWEMPGNDGYLQLVGIMQKFIDQSISANTNYDPSRFPSGKVPMQQLLKDLLTAYKFGVKTLYYQNTRDGAEDAQDDLVPSIQDDGCESGACKI
For the molecule B1, in data set [1], the “1st Phase kobs (SF UV-vis, NH2Y• formation / Y122• loss, with CDP/ATP)” value is reported as 12.8 ± 0.8, 20 ± 1; the “rate constant of NH2Y. formation at 325 nm, fast phase” value is 13.6 ± 0.1 s⁻¹; the “rate constant of NH2Y. formation at 325 nm, slow phase” value was 2.5 ± 0.1 s⁻¹; the “rate constant of Y122. loss at 410 nm, fast phase” value amounted to 12.0 ± 0.1 s⁻¹. Moreover, the “rate constant of Y122. loss at 410 nm, slow phase” value in data set [1] came out at 2.4 ± 0.1 s⁻¹. Further, the “2nd Phase kobs (SF UV-vis, NH2Y• formation / Y122• loss, with CDP/ATP)” value in data set [1] (in 1/s) is recorded as 2.5 ± 0.1, 19 ± 1.

B2: Y730NH2Y-α2 (E. coli class I ribonucleotide reductase subunit α2 with 3-aminotyrosine at residue 730) (enzyme, UniProt P00452 1-761, looked up)
chain: MNQNLLVTKRDGSTERINLDKIHRVLDWAAEGLHNVSISQVELRSHIQFYDGIKTSDIHETIIKAAADLISRDAPDYQYLAARLAIFHLRKKAYGQFEPPALYDHVVKMVEMGKYDNHLLEDYTEEEFKQMDTFIDHDRDMTFSYAAVKQLEGKYLVQNRVTGEIYESAQFLYILVAACLFSNYPRETRLQYVKRFYDAVSTFKISLPTPIMSGVRTPTRQFSSCVLIECGDSLDSINATSSAIVKYVSQRAGIGINAGRIRALGSPIRGGEAFHTGCIPFYKHFQTAVKSCSQGGVRGGAATLFYPMWHLEVESLLVLKNNRGVEGNRVRHMDYGVQINKLMYTRLLKGEDITLFSPSDVPGLYDAFFADQEEFERLYTKYEKDDSIRKQRVKAVELFSLMMQERASTGRIYIQNVDHCNTHSPFDPAIAPVRQSNLCLEIALPTKPLNDVNDENGEIALCTLSAFNLGAINNLDELEELAILAVRALDALLDYQDYPIPAAKRGAMGRRTLGIGVINFAYYLAKHGKRYSDGSANNLTHKTFEAIQYYLLKASNELAKEQGACPWFNETTYAKGILPIDTYKKDLDTIANEPLHYDWEALRESIKTHGLRNSTLSALMPSETSSQISNATNGIEPPRGYVSIKASKDGILRQVVPDYEHLHDAYELLWEMPGNDGYLQLVGIMQKFIDQSISANTNYDPSRFPSGKVPMQQLLKDLLTAYKFGVKTLYYQNTRDGAEDAQDDLVPSIQDDGCESGACKI
modifications: 3-aminotyrosine (NH2Y) at position 730 in place of Tyr (E. coli RNR numbering)
For the molecule B2, in data set [2], the 1st Phase Ampl (% of total initial Y122• trapped) is 20%; the 2nd Phase Ampl (% of total initial Y122• trapped) was 19%; the EPR spin quantitation at 10 s with CDP/ATP: share of remaining spin in the new signal (NH2Y730.) turned out to be 53%; the [NH2Y•] at 20 s in the reaction with β2 and N3ADP/dGTP (EPR) came to 7.6 µM. The same molecule gave a total initial Y122. consumed at 2 s in data set [2] of 39%.

B3: Y731NH2Y-α2 (E. coli class I ribonucleotide reductase subunit α2 with 3-aminotyrosine at residue 731) (enzyme, UniProt P00452 1-761, looked up)
chain: MNQNLLVTKRDGSTERINLDKIHRVLDWAAEGLHNVSISQVELRSHIQFYDGIKTSDIHETIIKAAADLISRDAPDYQYLAARLAIFHLRKKAYGQFEPPALYDHVVKMVEMGKYDNHLLEDYTEEEFKQMDTFIDHDRDMTFSYAAVKQLEGKYLVQNRVTGEIYESAQFLYILVAACLFSNYPRETRLQYVKRFYDAVSTFKISLPTPIMSGVRTPTRQFSSCVLIECGDSLDSINATSSAIVKYVSQRAGIGINAGRIRALGSPIRGGEAFHTGCIPFYKHFQTAVKSCSQGGVRGGAATLFYPMWHLEVESLLVLKNNRGVEGNRVRHMDYGVQINKLMYTRLLKGEDITLFSPSDVPGLYDAFFADQEEFERLYTKYEKDDSIRKQRVKAVELFSLMMQERASTGRIYIQNVDHCNTHSPFDPAIAPVRQSNLCLEIALPTKPLNDVNDENGEIALCTLSAFNLGAINNLDELEELAILAVRALDALLDYQDYPIPAAKRGAMGRRTLGIGVINFAYYLAKHGKRYSDGSANNLTHKTFEAIQYYLLKASNELAKEQGACPWFNETTYAKGILPIDTYKKDLDTIANEPLHYDWEALRESIKTHGLRNSTLSALMPSETSSQISNATNGIEPPRGYVSIKASKDGILRQVVPDYEHLHDAYELLWEMPGNDGYLQLVGIMQKFIDQSISANTNYDPSRFPSGKVPMQQLLKDLLTAYKFGVKTLYYQNTRDGAEDAQDDLVPSIQDDGCESGACKI
modifications: 3-aminotyrosine (NH2Y) at position 731 in place of Tyr (E. coli RNR numbering)
In the case of B3, in data set [2], the 1st Phase Ampl (% of total initial Y122• trapped) worked out at 24%; the 2nd Phase Ampl (% of total initial Y122• trapped) turned out to be 11%; the EPR spin quantitation at 10 s with CDP/ATP: share of remaining spin in NH2Y731. came out at 45%; the [NH2Y•] at 20 s in the reaction with β2 and N3ADP/dGTP (EPR) came to 7.1 µM. Further, the total initial Y122. consumed at 2 s in data set [2] came out at 35%.
